Test results taken from the DeepSol protein solubility set.

Assay: soluble on expression in E. coli; label from the status in PepcDB or PDB records

MLESNENRIQIMSTIAKIYRAMSRELNRRLGELNLSYLDFLVLRATSDGPKTMAYLANRYFVTQSAITASVDKLEEMGLVVRVRDREDARKILIEITEKGLETFNKGIEIYKKLANEVTGDLSEDEVILVLDKISKILKRIEEISQ
soluble on expression in E. coli: soluble

MFEALKEVLGEINSKLAAVNNELSSKIMSENIVSTRPVAQAQYCGPYKLEKTLGKGQTGLVKTGTHCITGRKVAIKIVNKEKLSESVLQKVEREIAIMKLIEHPHVLHLYDVYENKKYLYLLLEHVSGGELFDYLVRKGRLMSKEARKFFRQIISALDFCHAHNICHRDLKPENLLLDERNNIKVADFGMASLQVEGSMLETSCGSPHYACPEVIRGEKYDGRKADVWSCGVILYALLVGALPFDDDNLRNLLEKVKRGVFHIPHFVPADVQSLLRAMIEVDPGKRYSLADVFKHPWVSGTTKADPELELPMSQVVQTHVIPGEDSIDPDVLRHMNCLGCFKDKQKLINELLSPKHNTEKMVYFLLLDRKRRRPAQEDDTEIVLRGAAQNNDPPKKRTDSSRTSRYPMGSIADGSPINPRKTYGRNQKSGRHSSLGGSPTESPRSSTRDLFGSSSSGSYSARAGEDRDRGRSASRSTNSYHYYTQPVDPQTLAEAARHVRDAQERRESRDSGRGSSRKESKDRSDKSASSSSCKNDASSTSSVPHKYSPPSVMSESVVVSSSTMNSTNSSTNSLIAGNSQTSIGSTSGPWRSKLNNIKNSFLGTPRFHRRKMSNGTAESDSEDSQMIDTTDLVKKSWFGSLASSMSVERDDTHCVPVQGKTLNSIKAELIRAFLQIHELSHSVVGQNCFRVEYKRGPTVGGSVFSRGIKMNVDIIPSPQQVVIAGETPTYVVQFVLLAGPVRRFKRLVEHLSAILQNSTQQRADRQQQAALMVRPRRLSDSSVGSACSDSESNASSINMIARHSDKTETTSATSSDPYGPSPSMRSVGSGTANSYKSPTPHRRNTTAVTASSSSASNRYGPSSSSSGSYSNNADYSYHPEYSQRSNGSSAPKNQYSPGSQRSFAFSMFNKADKV
soluble on expression in E. coli: not soluble

MGHHHHHHSHMRKLVIPKYYGRPSIGLALFGCTNRPFYHVCVFPDRALGRRYEGNILEQVGTFDPLPNQKNEKLVALNFGRLKYWIGERNAHISVPVLELLGERRNCLSGLFPIHPKSFIRAKDNRALIADQQLKVAAEAAEAEKVAQEQASTGAAATSHPQ
soluble on expression in E. coli: soluble

MGSDKIHHHHHHMGETVPEKAQGAIRHGGNLGKARLMFRQAPEPWIDLSTGINPHSYPHSPIPASAFARLPEPGAAEELKQLAAAHFGAPSAQHVTLSPGTQMLMPLLAQIAINRGAQSGAVLSPAYAEHARTARMAGLTVTEVENIGDLSAYGYAVVVNPNNPDGRITDREALLALAGTIGRKGGLLVVDEAFIETGGAESLAVATNGEALVVLRSFGKFYGMAGVRLGFAIAHPEIAAELEARLGPWAVSGPALHIATEALADREWQSSMRLRLAEEARRMNELLEKAGLKIAGGTSLFTLVRDERSRALFGHLGRRGILVRIFDERPDDMRFGLPGSEADWQRVEEALRSFDHSSKV
soluble on expression in E. coli: not soluble

MAPSTEDPDTVVEAQRRGSFSKKKNANGWNKVELVDQCAKQMGSEDKQPGGGDVKTENDPSKNGLGSATSNFIQSSVPPSHQTLSNPLQLSPPAEASVAQQSGASQVFPTFQAALGASSDELLQPNATSSSTSSSASTSSIVPVVKFTNQTAPNGSTVATSVGQNVRLTINGKRVGRPPGTFKRPQNNAANSSNSGNDSDMMGDHDLTCRWKSCNSSFQTLKALVDHVQESHVQSTEQEHHAWRCEWEGCDRNETFKALYMLIVHVRRHTGEKPNKCEYPGCGKEYSRLENLKTHRRTHTGEKPYKCEFADCEKAFSNASDRAKHQNRTHSNLKPYSCQIPQCTKSYTDPSSLRKHIKAVHGDDEYEKAKKSRPANYSNRRRPDHRLAPPTGAMSHPYLATPNSGASVVAHSSVHQQNFINMALAQHHHNAQRAQQLMAATGNVMPMMDPASAAAAAQAQAHHQAQAQMLQTHMMQQAQIQAAAQMQAQVQHQAAMQAHAMQQAQMVLQNNLLGAQSLLSPFSPLLPPSRAPNVMAMLQTPPTPTSVAPMFDIMTSRAPMAPVVSAPTAPAPLVPAPVPASPVFDELREQMREVEPLQQQQQQEPMDQDLQDIRVDGDSDDEDEEEPRTPSGALLLPRGGNNGDGGFGGSGSSRASSGSGTMELSAAPISQNGSRASGSGERGMRSFLIADILQLAADFQNERLLSDVLDLAIFDTRDVRSLHNIYQVYIRAHKAIPITRRPLDWNETHQLHNLYHDPRFNRAEHQDSPAIRDRDTRFWRTIAEANTMRQRQIEPVPLDDDDEGYFDEMVHRVQNGRLNEQFMEGFESDDDDGFEDEDDVPGLGIAVYRGRRRVRREALKQANLDIQEAETAGRNVGGFGDEEDRNNRGHDQDRSFLDHYYPPMVVVVETESPQIVRDQEMMRQFEEAKKNVETDEIKKRAEAMQFGTSSSHHHTKTLLIQRALFDKTSSVRRSLLQFITISVDQEELRQSCHATSAPQGAHVVHNVVDEFDSIMRAQEDSNNRILLSLDIPAPSAVTGVSGSITHADNSALQLQQEQPTSSFSSWFPEDDPIYALPPPPPPPAPPRRRRSADNKDDSENIPKKPRHQF
soluble on expression in E. coli: not soluble

MSLMSVVKVGVNGFGTIGRRVALAITLQKDMKLVGVVKRTPDYAALYAASRGIPIYTPTAKEAEEFEKRGIKVGGTLRELLARVDVVVDATPEGQGAKNKPLYREAGVKQVYQGGEKPEVAEASFSTLCNYEESKGRGSLRVVSCNTTGLLRLICTLNREFGVESVRAVLVRRGADPKEVKKGPIDSIVLNPPTLPSHHAVDVRTVLPWLDIKTAAVAVPTTFMHMHHVTLKLAKPVEKREVLETLASAPRIMLVSSGDTGIKSTSQLVDAARLSRMGYDIPELVVFEESVAVDGREVMLFQAVHQESIVVPENIDAIRAVASSPLTLDETLKATDGSLGLRKTLW
soluble on expression in E. coli: soluble

MVDTISVLNPIHLDLSVDPQDNVRISARSTTSSSASTSSDSELMSPRAEELLRMQAELRATRTALAEKDKKMTQIQVTVDAEVQELTEKLFQEAYKMVNTAEARREKAGKLLTESRLEVEVLQAEVRALKELISAPGMGQNHFKQTTSPEHKSTLSKLFNGSSSSSKKQKDAANVSDKKKASSLPSTSTYTLTPSEDREQKEANAVEEIDPILFSEFEFWREAGHPTTSHPFIDRVTVEEVEPCMLFENSELSEEIMKAIRENRVQLEPLNELKPSVRICALTNASRFCPYRVRTGDEEQEWHYVSLIARNRVSYSTFLGLGTIDNFN
soluble on expression in E. coli: not soluble

MSLNQLLFVPLGGIGEIGMNLALYGYGPEHAREWIAVDVGISFAGADFPGVDLVFPDIRFIEELGDKLKGIVITHAHEDHYGALLDLWPKMKVPVYATAFTAAMLAAKREGEPGAPKIPVTQFSAGDRFKVGPFEIEAINVTHSIPEPVALAIRSPAGTVVHTGDWKIDPTPALGAPTDEKRLREIGDEGVLAMICDSTNALREGVSPSESEVSASLGEIIRGAKGRVAVTTFSSNVGRIRSIAAAARDAGRQVLLMGRSMRRVVDVSTELGYMDGIPPFLGEQDFGYIPPEKAVIILTGSQGETRAALARLSRDEHPTVALSQGDLVIFSSRAIPGNEKLIIDIKNALIERGVQILEDGEKLVHVSGHPRRSEMRQMYEWVRPTIAVPAHGEAAHLSAHAKLARELGVKQVVPARNGKMVQLSPGAASVIADVPVGRLFKDEGHHHHHH
soluble on expression in E. coli: soluble

MDMKKWLVATALIATTISGVTQAKEWKTVRFGIEGAYPPFSWTEADGSLKGFDVDMANALCAEMQVECKIVPQDWDGIIPSLLARKYDAIIAAMSITEERKKKVDFTGKYAQIPNKFIAKKGADLAFTKEGLKGVKIGVQRATTHDKYITDNYGDTVDIVRYGSFDEAYLDLANGRIAAVLGDASALEEGMLNKPGGDAYEFVGPSLTDPKWFGEGMGIAVRKQDKELTEKLDAAITALREKGIYQQIQAKYFKYDVYGE
soluble on expression in E. coli: not soluble

MGSDKIHHHHHHMAQQDRLQQMREWIKTTPEISLDQLMGEYRISRDTARRDLIQLEREGKIIRVKNGLIRVGTNTTIQYDRRTEQPEKNRIAKHAVRYVQPDQTIILDAASTVARMTVHLPAQPIQIITNALAVVEQLEARPEIDLYVTGGKWDRHARSLVGIKTADDILNYQVDRVFLGACGLTEQGVFAENLEEAIVKKAMIRSSAEVIVLADHTKFEKRFLHKVCDLDQIDILITDERPTEQWQKWLQEADILLETAEEE
soluble on expression in E. coli: not soluble
